In article PMC2688388:

Molecular target: mCeruleanC-α1C,77 (human Cav1.2 calcium channel α1C,77 subunit labeled at the C-tail with mCerulean) (human)
Test: FRET or BRET; two-color FRET (mCerulean/tagRFP) epifluorescence microscopy in COS1 cells, control for cascade transfer: Rβ3 and α1CC without Vα1C

Chain of mCeruleanC-α1C,77 (human Cav1.2 calcium channel α1C,77 subunit labeled at the C-tail with mCerulean) (human) (Q13936 whole entry): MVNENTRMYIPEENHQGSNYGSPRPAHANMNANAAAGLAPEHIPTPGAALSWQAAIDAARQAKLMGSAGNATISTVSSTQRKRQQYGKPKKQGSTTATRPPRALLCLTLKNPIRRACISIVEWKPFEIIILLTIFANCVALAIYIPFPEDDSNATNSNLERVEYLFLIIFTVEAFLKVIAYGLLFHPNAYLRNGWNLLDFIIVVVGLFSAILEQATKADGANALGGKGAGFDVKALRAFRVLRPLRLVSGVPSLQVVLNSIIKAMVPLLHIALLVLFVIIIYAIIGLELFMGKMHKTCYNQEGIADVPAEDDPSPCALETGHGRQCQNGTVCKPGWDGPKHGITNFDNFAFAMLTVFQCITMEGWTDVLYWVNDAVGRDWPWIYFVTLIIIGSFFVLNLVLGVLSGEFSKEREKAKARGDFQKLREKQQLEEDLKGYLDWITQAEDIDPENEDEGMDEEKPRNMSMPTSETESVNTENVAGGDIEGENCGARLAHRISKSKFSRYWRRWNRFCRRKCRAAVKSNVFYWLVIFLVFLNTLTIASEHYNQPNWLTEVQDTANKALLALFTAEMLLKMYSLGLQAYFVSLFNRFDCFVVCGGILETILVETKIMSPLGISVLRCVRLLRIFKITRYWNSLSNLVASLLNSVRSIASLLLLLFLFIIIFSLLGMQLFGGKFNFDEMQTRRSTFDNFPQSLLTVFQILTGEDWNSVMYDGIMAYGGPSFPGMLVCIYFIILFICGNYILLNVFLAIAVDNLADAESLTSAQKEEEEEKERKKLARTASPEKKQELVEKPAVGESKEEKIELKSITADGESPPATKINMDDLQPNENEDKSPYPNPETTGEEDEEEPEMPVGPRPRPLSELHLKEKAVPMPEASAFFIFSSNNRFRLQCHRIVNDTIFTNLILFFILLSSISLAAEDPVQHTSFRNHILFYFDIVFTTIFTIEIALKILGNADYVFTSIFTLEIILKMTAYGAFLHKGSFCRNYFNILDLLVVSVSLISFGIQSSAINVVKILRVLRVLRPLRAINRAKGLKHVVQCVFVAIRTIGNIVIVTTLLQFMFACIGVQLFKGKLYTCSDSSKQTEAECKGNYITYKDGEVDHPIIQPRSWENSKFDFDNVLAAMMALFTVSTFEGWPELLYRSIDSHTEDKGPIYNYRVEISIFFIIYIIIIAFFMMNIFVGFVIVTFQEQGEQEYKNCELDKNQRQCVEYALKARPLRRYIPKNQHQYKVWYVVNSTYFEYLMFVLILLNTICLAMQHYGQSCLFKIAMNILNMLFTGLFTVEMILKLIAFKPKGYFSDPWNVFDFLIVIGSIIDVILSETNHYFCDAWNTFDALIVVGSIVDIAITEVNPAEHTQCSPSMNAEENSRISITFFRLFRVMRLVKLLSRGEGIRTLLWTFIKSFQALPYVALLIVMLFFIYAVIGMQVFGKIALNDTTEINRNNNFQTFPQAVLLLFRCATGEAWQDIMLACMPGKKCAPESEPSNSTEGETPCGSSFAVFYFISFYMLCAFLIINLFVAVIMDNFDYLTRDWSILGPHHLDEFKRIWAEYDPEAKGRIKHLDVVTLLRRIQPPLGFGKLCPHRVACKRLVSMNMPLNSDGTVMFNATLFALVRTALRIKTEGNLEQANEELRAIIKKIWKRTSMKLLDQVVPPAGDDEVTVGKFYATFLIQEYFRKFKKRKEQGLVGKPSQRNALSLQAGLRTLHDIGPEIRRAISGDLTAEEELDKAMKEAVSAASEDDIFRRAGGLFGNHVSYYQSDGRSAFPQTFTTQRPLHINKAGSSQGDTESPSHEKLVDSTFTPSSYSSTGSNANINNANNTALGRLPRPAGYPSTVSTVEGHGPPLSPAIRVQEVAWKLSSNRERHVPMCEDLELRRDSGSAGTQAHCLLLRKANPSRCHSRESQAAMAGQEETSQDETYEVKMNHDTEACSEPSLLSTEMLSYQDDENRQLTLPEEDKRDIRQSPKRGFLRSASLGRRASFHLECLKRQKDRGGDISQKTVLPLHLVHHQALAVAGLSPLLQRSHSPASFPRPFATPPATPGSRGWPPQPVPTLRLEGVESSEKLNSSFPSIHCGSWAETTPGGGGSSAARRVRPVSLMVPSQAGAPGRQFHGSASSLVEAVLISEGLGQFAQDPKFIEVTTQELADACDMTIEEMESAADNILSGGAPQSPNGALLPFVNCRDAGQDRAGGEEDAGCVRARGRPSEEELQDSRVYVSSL

RFP-β3 (human Cavβ3 subunit with tagRFP fused to the N-terminus) (from UniProt P54284 1-484) (natural protein)
FRET efficiency: 0.05
